In experiment [1] the target is T1, human CD20 (human, UniProt P11836).
T1 sequence: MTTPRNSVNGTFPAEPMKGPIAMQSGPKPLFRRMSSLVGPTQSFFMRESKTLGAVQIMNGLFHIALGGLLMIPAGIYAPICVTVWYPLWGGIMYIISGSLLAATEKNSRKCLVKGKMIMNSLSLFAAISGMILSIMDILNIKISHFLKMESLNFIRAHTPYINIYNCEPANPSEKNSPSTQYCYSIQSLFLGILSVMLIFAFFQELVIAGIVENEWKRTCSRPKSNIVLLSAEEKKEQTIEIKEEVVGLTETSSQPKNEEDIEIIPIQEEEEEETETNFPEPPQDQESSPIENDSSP
In words: flow cytometry, BJAB cells, saturating antibody. In general terms: In flow cytometry, cells or beads pass a laser one at a time.

Experiment [2] addresses T1, human CD20. In words: flow cytometry, human blood B cells, saturating antibody.
For experiment [3], the target named is T1, human CD20. In words: flow cytometry, Raji cells, saturating antibody.
For experiment [4], the target named is T1, human CD20. In words: flow cytometry, DHL-4 cells, saturating antibody.
The target in experiment [5] is T2, mouse CD20 (mouse, UniProt P19437).
T2 sequence: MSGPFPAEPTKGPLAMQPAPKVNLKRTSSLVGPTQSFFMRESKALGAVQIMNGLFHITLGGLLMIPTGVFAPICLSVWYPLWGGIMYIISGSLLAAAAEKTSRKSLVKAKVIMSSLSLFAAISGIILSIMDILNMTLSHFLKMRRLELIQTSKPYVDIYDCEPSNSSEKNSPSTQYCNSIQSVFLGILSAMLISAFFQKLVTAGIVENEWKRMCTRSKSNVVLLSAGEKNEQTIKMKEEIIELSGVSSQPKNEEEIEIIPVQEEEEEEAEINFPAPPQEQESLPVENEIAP
The experiment in a line: flow cytometry, spleen CD19+ B cells, control staining.

For experiment [6], the target named is T2, mouse CD20. The experiment in a line: flow cytometry, spleen CD19+ B cells, 0.5 µg/mL antibody.

Where a chain is given by its changes, count along the chain named.

Here are results for 15 molecules from patent US9416187B2, “CD-20 specific antibodies and methods of employing same” (Duke University, dated 2016).

Consider 1F5 anti-CD20 monoclonal antibody, for which the mean linear fluorescence intensity was 386 with human CD20 [1], 104 with human CD20 [2], 455 with human CD20 [3] and 169 with human CD20 [4].
As for “isotype-matched control monoclonal antibodies”, in the experiment with mouse CD20 [5], the mean linear fluorescence intensity was under 6.
Regarding B9E9 anti-CD20 monoclonal antibody, the mean linear fluorescence intensity stood at 377 in the experiment with human CD20 [1], 112 in the experiment with human CD20 [2], 438 with human CD20 [3] and 162 with human CD20 [4].
As for B1 anti-CD20 monoclonal antibody, the mean linear fluorescence intensity with human CD20 [1] came out at 700; in the experiment with human CD20 [2], 277; with human CD20 [3] it was 944; with human CD20 [4], 486.

B1: HB20-3 monoclonal antibody (antibody, V domains shown)
VH: EVQLQESGAELVKPGASVKMSCKASGFTFTNYNMHWLKQTPGQGLEWIGAIYPENGDTSYNQKFKGKATLTADKASSTAYMHLSSLTSEDSAVYFCARFYYYGSYYGAMDYWGQGTSVTVSS
VL: MWGSVFNFSIVGARCDIQMTQSPASLSASVGETVTITCRASGNIHNYLAWYQQKQGKSPQLLVYNAKTLADGVPSRFSGSGSGTQFSLKINSLQPEDFGSYYCQHFWSTPWTFGGGTKLEIKR
Consider B1, for which the “mean linear fluorescence intensity” value with human CD20 [1] turned out to be 1200; with human CD20 [2], 469; in the experiment with human CD20 [3] it was 2220; with human CD20 [4] it was 765.

B2: HB20-4 monoclonal antibody (antibody, V domains shown)
VH: B1 VH with L37V, K63R, A75S, S91T, M109L
VL: B1 VL with N43S, Q55L, T109I
In the case of B2, the “mean linear fluorescence intensity” value with human CD20 [1] was 1100; with human CD20 [2], 397; with human CD20 [3] it was 1580; with human CD20 [4], 578.

B3: MB20-2 monoclonal antibody (antibody, V domains shown)
VH: EVQLQESGPELVKPGASVKISCKASGYMFTDYYIKWVKQSHGKSLEWIGDINPNNGDTIYNQKFKGKATLTVDKSSNTAYMDLRSLTSEDSAVYYCARERFAYWGQGTLVTVSA
VL: EIVLTQSPTTMAASPGEKITITCSVSSSIRSNYLHWYQQKPGFSPKLLIYRTSNLASGVPARFSGSGSGTSYSLTVATMEAEDVATYYCQQGSSIPLTFGAGTKLELKR
In the case of B3, the “B cell reactivity (mean linear fluorescence intensity)” value (shortened to “B cell reactivity”) with mouse CD20 [6] came to 209.

B4: MB20-14 monoclonal antibody (antibody, V domains shown)
VH: B3 VH with S85I
VL: B3 VL
On to B4, for which the “B cell reactivity” value with mouse CD20 [6] was 166.

B5: MB20-7 monoclonal antibody (antibody, V domains shown)
VH: B3 VH with E10D, I34M, I59T, K65E, N77S, D82E
VL: B3 VL with I2L, M11K, K40R, V76I, A77G, I95L
For the molecule B5, the “B cell reactivity” value with mouse CD20 [6] stood at 525.

B6: MB20-10 monoclonal antibody (antibody, V domains shown)
VH: B3 VH with E10D, M28T, I34M, E46D, T58I, K65E, N77S, D82E
VL: B3 VL with S28N, V76I, A77G, E80K
On to B6, for which, in the experiment with mouse CD20 [6], the “B cell reactivity” value stood at 317.

B7: MB20-18 monoclonal antibody (antibody, V domains shown)
VH: B3 VH with P9L, E10D, M28T, I34M, E46D, T58I, K65E, N77S, D82E
VL: SIVMTQTPKFLLVSTGDRVTITCKASQTVTNDLAWYQQKPGQSPKLLIYYASNRYTGVPDRFTGSGYGTDFTFTINTVQAEDLAVYFCQQDYSSPLTFGAGTKLELKR
In the case of B7, the “B cell reactivity” value with mouse CD20 [6] turned out to be 729.

B8: MB20-8 monoclonal antibody (antibody, V domains shown)
VH: B3 VH with E10D, M28T, I34M, E46D, T58I, K65E, N77S, D82E
VL: B3 VL with S28N, V76I, A77G, E80K
For B8, in the experiment with mouse CD20 [6], the “B cell reactivity” value came out at 240.

B9: HB20-25 monoclonal antibody (antibody, V domains shown)
VH: EVQLQESGAELVKPGASVKMSCKASGFRFTNYNLHWVKQTPGQGLEWIGAIYPGNGETSYNQKFKGKATLTADKSSSTAYMQLRSLTSGDSAVYYCARFYYYGSSYGAMDYWGQGTSVTVSS
VL: MWGSVFNFSIVDARCDIQMTQSPASLSVSVGETVTITCRASENIYSNLAWYQQKQGKSPQLLVYAATNLADGVPSRFSGSGSGTQYSLKINSLQSEDFGSYYCQHFWGIPWTFGGGTKLEIKR
As to B9, the “mean linear fluorescence intensity” value with human CD20 [1] came out at 849; in the experiment with human CD20 [2], 227; with human CD20 [3], 1350; in the experiment with human CD20 [4] it was 514.

B10: MB20-1 monoclonal antibody (antibody, V domains shown)
VH: EVQLQESGGGLVQPGGSLKLSCAASGFTFSDYGMAWVRQAPRKGPEWVAFISNLAYSIYYADTVTGRFTISRENAKNTLYLEMSSLRSEDTAMYFCTRTGYYALDYWGQGTSVTVSS
VL: NIMMTQSPSSLAVSAGEKVTMRCKSSQSVLYSSKRKNYLAWYQQKPGKSPTLLIYWASTRESGVPDRFTGSGSGTDFTLTITSVQAEDLAVYYCHQYLSSFTFGGGTKLEIKR
On to B10, for which the “B cell reactivity” value with mouse CD20 [6] amounted to 69.

B11: MB20-13 monoclonal antibody (antibody, V domains shown)
VH: B10 VH
VL: B3 VL with T5A, M11T, V25A, R30T, V76I, A77G, I95K, P96T
B11: the “B cell reactivity” value with mouse CD20 [6] is 603.
